Consider two molecules from patent US20220031650A1 (PDS BIOTECHNOLOGY, published 2022).

The target of assay [1] is T1, H-2K^b molecules on RMA-S cells (mouse, UniProt P01901 22-369; P01887 21-119).
T1 construct: whole, on cells
T1 sequence (MHC heavy): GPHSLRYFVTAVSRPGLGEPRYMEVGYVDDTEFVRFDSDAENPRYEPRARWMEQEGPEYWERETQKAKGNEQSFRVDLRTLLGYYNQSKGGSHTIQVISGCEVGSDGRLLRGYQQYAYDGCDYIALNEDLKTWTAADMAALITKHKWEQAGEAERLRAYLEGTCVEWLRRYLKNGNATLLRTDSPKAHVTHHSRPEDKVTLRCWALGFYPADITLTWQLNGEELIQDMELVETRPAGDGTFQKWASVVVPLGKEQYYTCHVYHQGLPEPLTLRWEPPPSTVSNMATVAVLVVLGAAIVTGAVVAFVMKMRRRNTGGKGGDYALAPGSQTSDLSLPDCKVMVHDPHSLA
T1 sequence: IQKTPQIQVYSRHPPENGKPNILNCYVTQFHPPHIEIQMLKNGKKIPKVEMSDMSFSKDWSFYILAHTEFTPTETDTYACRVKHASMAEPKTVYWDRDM
The assay can be described thus: RMA-S MHC class I stabilisation assay, flow cytometry with anti-H-2K^b antibody.

In assay [2] the target is T2, H-2D^b molecules on RMA-S cells (mouse, UniProt P01899 25-362; P01887 21-119).
T2 construct: whole, on cells; also called MHC class I
T2 sequence (MHC heavy, looked up): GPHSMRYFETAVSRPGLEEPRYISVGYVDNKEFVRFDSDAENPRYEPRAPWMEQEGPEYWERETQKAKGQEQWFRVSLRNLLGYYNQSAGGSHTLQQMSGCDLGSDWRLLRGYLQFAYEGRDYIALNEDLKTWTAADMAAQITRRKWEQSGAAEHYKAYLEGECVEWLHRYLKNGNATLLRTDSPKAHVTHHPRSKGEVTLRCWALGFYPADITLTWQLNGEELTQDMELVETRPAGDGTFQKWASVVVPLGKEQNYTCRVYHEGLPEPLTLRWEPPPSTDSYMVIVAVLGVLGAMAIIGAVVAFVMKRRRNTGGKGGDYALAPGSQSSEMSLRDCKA
T2 sequence (looked up): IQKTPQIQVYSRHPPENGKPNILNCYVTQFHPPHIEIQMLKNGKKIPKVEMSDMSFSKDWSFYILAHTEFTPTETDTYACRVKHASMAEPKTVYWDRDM
The assay can be described thus: RMA-S MHC class I stabilisation assay, 10 µM peptide, flow cytometry with anti-H-2D^b antibody, medium control.
Procedure: We evaluated the MHC class I binding affinity of native and KSS-elongated E7 peptides. RMA-S cells, a mouse lymphoma cell line at a concentration of 5×10⁵ cells/ml were incubated overnight at 27° C. with native E7 or KSS-E7 peptide (10 μM). Cells incubated with medium were used as a control. Cells were then incubated for 2 h at 37° C. After washes, cells were stained with fluorescently conjugated monoclonal antibodies against H-2D^b or H-2K^b molecules on the cell surface prior to flow cytometry analysis.

B1: KSS-E7 peptide (KSS (lysine-serine-serine)-elongated E7 peptide without the lipid chain) (peptide)
peptide: KSSRAHYNIVTF
notes: Not lipidated; added at 10 uM to RMA-S cells; also called KSS-elongated E7 peptide
As to B1, in assay [1], the binding result is reported as “no binding (tested: 10 µM)”. For the same molecule, in assay [2], the “fold increase in the mean fluorescence (H-2D^b on RMA-S cells)” value came to 8 fold.

B2: native E7 peptide (HPV 16 E7 protein, amino acid 49-57, H-2D^b restricted CTL epitope) (peptide)
peptide: RAHYNIVTF
notes: Synthetic free peptide, added at 10 uM to RMA-S cells; also called E7 antigen
For B2, in assay [1], the binding result was “no binding (tested: 10 µM)”. In assay [2], the “fold up-regulation of H-2D^b molecules on RMA-S cells compared to the control” value came to 4 fold.
